{
  "source": "paper PMC9114768",
  "about": "(Frontiers in Immunology, 2022)",
  "binders": {"B1": {"name": "monoclonal antibody 127 (antibody, V domains shown)", "VH": "QVQLQQPGAELVKPGASVKLSCKASGYTFTSYWMHWVKQRPGQGLEWIGEINPSNGRKNYNEKFKSKATLTVDKSSSTAYMQLSSLTSEDSAVYYCVRGDYGSSYYWYFDVWGAGTTVTVSS", "VL": "not shown"}, "B2": {"name": "monoclonal antibody 150 (antibody, V domains shown)", "VH": "B1 VH", "VL": "not shown", "notes": "also called mAb 150"}},
  "conditions_in_all_cases": "both partners purified",
  "key": {"S1-RBD peptide 13": {"molecular_target": "T1, S1-RBD peptide 13 (SARS-CoV-2 (YP_009724390))", "T1 construct": "source: synthetic peptide (Leadgene Biomedical)", "T1 chain": "PFERDISTEIYQAGS", "test": "ELISA"}, "[1]": {"molecular_target": "His-tagged SARS-CoV-2 S1-RBD recombinant protein, wild type (SARS-CoV-2 (YP_009724390), UniProt P0DTC2)", "test": "SPR; Biacore T200; […]; mAb 256 nM to 8 nM; 30 μL/min, 120 s association, 360 s dissociation; 25°C; 1:1 binding model"}, "[2]": {"molecular_target": "T2, C-terminal Fc-tagged human ACE2 recombinant protein (Homo sapiens, UniProt Q9BYF1)", "T2 construct": "also called ACE2-hFc; recombinant ACE2-hFc; source: CHO cells, purified (Leadgene Biomedical Cat. No. 63333); not shown: Fc (human, hFc), C-terminal, kept", "T2 sequence (Q9BYF1 18-740)": "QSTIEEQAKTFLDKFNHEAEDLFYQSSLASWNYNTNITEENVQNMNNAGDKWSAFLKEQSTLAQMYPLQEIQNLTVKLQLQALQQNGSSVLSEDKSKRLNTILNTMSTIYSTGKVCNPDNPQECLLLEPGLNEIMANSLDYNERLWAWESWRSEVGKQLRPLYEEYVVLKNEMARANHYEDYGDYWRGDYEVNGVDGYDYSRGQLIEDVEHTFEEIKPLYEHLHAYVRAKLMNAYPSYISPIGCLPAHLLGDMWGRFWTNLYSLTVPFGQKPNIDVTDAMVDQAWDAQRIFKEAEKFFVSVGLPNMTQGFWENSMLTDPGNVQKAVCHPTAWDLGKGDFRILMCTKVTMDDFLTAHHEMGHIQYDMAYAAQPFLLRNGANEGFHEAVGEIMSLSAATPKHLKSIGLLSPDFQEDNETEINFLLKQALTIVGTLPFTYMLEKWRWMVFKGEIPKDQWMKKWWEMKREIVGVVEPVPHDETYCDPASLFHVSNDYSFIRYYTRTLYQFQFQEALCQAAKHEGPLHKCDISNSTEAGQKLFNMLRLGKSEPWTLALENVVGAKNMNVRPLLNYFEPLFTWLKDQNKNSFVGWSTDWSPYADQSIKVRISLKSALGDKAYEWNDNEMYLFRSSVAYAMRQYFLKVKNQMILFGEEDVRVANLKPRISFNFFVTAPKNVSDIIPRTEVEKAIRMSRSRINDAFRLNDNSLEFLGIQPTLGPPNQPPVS", "test": "SPR; Biacore T200; […]; mAb 1024 nM to 8 nM; 30 μL/min, 120 s association, 360 s dissociation; 25°C; 1:1 binding model"}},
  "data": [
    {"binder": "B1", "values": [
      {"measurement": "binding result", "setting": "S1-RBD peptide 13", "value": "binds"},
      {"measurement": "Kd", "setting": "[1]", "value": 2.44, "unit": "nM"},
      {"measurement": "Kd", "setting": "[2]", "value": 16.1, "unit": "nM"}
    ]},
    {"binder": "B2", "values": [
      {"measurement": "binding result", "setting": "S1-RBD peptide 13", "value": "binds"},
      {"measurement": "Kd", "setting": "[1]", "value": 3.87, "unit": "nM"},
      {"measurement": "Kd", "setting": "[2]", "value": 2770, "unit": "nM"}
    ]}
  ]
}
